The results in this text go back to patent publication CN117736312A (SHANGHAI BOVAX BIOLOGICAL SCIENCE & TECH CO LTD, dated 2024).

Experiment in all cases: sandwich ELISA (rabbit anti-L1 capture)
A general note: An ELISA detects its analyte on a solid surface through an enzyme-linked reagent.

One experiment addresses T1, HPV52L1 (human papillomavirus type 52, UniProt Q05138 27-529).
T1 sequence: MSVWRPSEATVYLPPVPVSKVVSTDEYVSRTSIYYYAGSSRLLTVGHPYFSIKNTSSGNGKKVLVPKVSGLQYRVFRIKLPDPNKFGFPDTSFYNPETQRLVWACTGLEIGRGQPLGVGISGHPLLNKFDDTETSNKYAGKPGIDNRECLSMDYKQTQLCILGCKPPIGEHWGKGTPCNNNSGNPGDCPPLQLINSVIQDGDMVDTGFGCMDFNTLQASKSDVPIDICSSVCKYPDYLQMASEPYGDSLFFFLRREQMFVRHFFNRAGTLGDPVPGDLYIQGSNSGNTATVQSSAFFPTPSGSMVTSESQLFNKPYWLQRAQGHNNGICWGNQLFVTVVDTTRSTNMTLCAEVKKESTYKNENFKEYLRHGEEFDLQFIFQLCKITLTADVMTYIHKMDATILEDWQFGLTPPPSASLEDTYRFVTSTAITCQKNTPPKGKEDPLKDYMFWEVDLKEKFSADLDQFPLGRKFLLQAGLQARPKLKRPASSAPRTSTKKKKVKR

Another experiment deals with T2, HPV39L1 (human papillomavirus type 39, UniProt P24838 1-505).
T2 sequence: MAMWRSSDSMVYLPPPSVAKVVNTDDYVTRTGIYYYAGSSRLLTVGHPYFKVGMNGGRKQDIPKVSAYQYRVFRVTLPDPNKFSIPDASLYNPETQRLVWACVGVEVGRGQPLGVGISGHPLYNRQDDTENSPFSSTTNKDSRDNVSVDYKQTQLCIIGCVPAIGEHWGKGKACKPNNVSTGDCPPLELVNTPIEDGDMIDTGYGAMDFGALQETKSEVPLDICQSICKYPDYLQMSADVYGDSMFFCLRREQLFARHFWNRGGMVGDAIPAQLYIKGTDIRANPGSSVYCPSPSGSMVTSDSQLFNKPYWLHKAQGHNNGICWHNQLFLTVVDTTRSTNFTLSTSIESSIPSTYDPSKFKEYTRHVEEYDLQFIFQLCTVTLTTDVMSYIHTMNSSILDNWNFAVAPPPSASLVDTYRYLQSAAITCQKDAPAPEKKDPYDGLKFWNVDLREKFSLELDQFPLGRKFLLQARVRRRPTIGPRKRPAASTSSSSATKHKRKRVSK

In the next experiment the target is T3, HPV33L1 (human papillomavirus type 33, UniProt P06416 1-499).
T3 sequence: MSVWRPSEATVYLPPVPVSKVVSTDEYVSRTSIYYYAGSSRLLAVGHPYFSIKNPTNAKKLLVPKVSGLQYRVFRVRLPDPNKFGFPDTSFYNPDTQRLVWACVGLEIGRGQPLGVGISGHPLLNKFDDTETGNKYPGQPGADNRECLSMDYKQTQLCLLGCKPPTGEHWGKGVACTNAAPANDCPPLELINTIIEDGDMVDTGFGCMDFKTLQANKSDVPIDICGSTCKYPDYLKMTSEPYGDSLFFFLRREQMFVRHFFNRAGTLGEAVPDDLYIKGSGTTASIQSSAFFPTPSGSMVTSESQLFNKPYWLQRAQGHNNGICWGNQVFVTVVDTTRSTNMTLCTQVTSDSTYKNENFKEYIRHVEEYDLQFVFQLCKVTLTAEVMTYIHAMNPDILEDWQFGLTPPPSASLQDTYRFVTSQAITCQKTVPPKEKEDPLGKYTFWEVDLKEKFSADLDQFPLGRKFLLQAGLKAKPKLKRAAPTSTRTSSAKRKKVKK

The target in a further experiment is T4, HPV18L1 (human papillomavirus type 18, UniProt P06794 62-568).
T4 sequence: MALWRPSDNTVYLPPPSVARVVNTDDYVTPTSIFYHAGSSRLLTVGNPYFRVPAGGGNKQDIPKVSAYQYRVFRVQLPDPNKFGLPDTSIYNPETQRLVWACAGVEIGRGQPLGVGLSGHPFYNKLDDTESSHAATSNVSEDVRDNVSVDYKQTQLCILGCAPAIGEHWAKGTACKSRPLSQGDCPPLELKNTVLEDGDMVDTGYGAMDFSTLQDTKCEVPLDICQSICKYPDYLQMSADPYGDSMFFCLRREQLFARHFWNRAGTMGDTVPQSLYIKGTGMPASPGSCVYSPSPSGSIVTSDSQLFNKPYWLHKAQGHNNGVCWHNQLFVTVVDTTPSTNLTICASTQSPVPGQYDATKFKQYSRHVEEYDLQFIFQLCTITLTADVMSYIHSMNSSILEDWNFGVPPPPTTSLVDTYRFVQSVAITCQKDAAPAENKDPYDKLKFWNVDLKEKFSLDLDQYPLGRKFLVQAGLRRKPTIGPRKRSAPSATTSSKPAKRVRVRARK

Another experiment concerns the target T5, HPV51L1 (human papillomavirus type 51, UniProt P26536 1-504).
T5 sequence: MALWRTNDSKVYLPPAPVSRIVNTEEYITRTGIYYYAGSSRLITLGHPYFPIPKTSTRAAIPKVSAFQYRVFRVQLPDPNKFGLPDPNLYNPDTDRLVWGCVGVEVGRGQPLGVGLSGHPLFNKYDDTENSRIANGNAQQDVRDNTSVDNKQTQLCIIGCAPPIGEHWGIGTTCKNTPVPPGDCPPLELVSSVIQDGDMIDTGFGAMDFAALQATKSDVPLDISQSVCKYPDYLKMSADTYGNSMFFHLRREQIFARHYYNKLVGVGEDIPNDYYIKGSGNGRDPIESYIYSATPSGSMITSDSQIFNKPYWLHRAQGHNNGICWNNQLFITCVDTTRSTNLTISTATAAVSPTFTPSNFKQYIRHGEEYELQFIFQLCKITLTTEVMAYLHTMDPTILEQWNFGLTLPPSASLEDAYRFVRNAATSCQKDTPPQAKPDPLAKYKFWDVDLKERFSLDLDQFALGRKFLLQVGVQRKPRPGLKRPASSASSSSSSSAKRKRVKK

B1: HPV 59编号为30单克隆抗体 (antibody, V domains shown)
VH: QIQLVQSGPELKKPGETVKISCKASGYTFTDYSMHWVKQAPGKGLKWMGWINTETGEPTYADDFKGRFAFSLETSASTAYLQINNLKIEDTATYFCTRDGYVWYFDVWGAGTTVTVSS
VL: QIVLSQSPAILSASPGEKVTMTCRASSSVNYMHWYQQKPGSSPKPWIYATSNLASGVPARFSGSGSGTSYSLTISRVEAEDAATYYCQQWSSNPIFTFGSGTKLEIK
notes: Mouse hybridoma antibody tested as cell supernatant; also called 59H30
Consider B1, for which the binding result in the experiment with HPV52L1, with HPV39L1, with HPV33L1, with HPV18L1 and with HPV51L1 was “no binding (tested: 原液40μg/ml; 细胞上清1:100)” throughout.
